Positions count from the first letter of the chain named. Names may count otherwise.
T1: human latent myostatin (human, UniProt O14793 25-266; O14793 267-375)
T1 construct: non-covalent complex of two propeptides and the mature homodimer; also called human myostatin latent form
T1 sequence 1: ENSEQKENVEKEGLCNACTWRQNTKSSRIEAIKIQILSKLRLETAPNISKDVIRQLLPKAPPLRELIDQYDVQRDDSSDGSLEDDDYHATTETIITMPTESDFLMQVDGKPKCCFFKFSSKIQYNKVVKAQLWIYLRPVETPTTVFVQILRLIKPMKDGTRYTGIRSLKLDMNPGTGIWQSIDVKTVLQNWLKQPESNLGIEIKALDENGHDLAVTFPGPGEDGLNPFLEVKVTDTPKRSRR
T1 sequence 2: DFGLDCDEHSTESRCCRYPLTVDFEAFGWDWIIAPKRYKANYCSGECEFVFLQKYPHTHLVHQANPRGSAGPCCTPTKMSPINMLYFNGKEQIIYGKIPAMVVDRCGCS

T2: cyno Fc gamma RIIb extracellular domain, His-tagged (cynomolgus monkey)
T2 construct: also called cynoFcgRIIb
T2 chain: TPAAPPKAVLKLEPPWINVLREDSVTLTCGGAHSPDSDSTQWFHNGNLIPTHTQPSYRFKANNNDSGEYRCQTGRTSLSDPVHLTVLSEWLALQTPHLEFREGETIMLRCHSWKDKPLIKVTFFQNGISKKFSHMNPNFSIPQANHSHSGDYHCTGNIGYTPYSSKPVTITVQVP

T3: human Fc gamma RIIb extracellular domain, His-tagged (human, UniProt P31994 43-217)
T3 construct: also called FcgRIIb
T3 sequence: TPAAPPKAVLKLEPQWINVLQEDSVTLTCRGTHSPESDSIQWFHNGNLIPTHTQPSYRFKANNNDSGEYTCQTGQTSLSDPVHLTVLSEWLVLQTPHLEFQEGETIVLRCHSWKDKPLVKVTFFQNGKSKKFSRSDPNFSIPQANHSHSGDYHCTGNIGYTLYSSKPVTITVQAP

B1: MS_M103205H707-SG1/M103202L802-SK1 (antibody, human IgG1, kappa, V domains shown)
VH: QVTLKESGPVLVKPTETLTLTCTVSGIDLSHYDISWVRQAPGKGLEWVGIISYAGSTYYASWAKGRLTISKDTSKNQVVLTMTNMDPVDTATYYCARGVPAYSHGGDLWGQGTLVTVSS
VL: DIVMTQSPATLSLSPGERATLSCTSSQSVYHDNWLSWFQQKPGQPPKLLIYWASTLAYGVPSRFSGSGSGTDFTLTISSLQPEDAATYYCAGGYGGGLYAFGQGTKVEIKR
notes: also called MS1032LO04-SG1
B2: MS_M103205H781-SG1/M103202L719-SK1 (antibody, human IgG1, kappa, V domains shown)
VH: B1 VH with Y32T, A60M
VL: B1 VL with T24Q, D32N, Y58F
notes: also called MS1032LO02-SG1
B3: MS_M103205H781-SG1/M103202L813-SK1 (antibody, human IgG1, kappa, V domains shown)
VH: B1 VH with Y32T, A60M
VL: B1 VL with T24Q, S25T, Y58S, L98R
notes: also called MS1032LO03-SG1
B4: M103205H795-SG1 K334Y/M103202L889-SK1 (antibody, human IgG1, kappa)
heavy: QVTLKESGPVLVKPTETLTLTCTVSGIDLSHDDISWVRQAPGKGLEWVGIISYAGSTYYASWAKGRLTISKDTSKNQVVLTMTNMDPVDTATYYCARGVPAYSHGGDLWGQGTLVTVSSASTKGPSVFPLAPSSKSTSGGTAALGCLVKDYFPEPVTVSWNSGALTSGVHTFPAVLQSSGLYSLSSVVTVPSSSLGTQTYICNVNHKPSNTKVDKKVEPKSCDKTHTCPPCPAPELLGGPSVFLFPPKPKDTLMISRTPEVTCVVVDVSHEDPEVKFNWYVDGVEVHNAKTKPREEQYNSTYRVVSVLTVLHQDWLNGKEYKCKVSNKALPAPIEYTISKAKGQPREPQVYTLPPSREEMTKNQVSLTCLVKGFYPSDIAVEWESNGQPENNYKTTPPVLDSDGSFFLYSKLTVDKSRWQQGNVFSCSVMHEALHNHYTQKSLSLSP
light: DIVMTQSPATLSLSPGERATLSCTSSQSVYHANWLSWFQQKPGQPPKLLIYWASTLAYGVPSRFSGSGSGTDFTLTISSLQPEDAATYYCAGGYGGGRYAFGQGTKVEIKRTVAAPSVFIFPPSDEQLKSGTASVVCLLNNFYPREAKVQWKVDNALQSGNSQESVTEQDSKDSTYSLSSTLTLSKADYEKHKVYACEVTHQGLSSPVTKSFNRGEC
notes: copies: 2 + 2
B5: M103205H795-SG1 S298L/M103202L889-SK1 (antibody, human IgG1, kappa)
heavy: not shown
light: B4 light
notes: copies: 2 + 2
B6: M103205H795-SG1 K334M/M103202L889-SK1 (antibody, human IgG1, kappa)
heavy: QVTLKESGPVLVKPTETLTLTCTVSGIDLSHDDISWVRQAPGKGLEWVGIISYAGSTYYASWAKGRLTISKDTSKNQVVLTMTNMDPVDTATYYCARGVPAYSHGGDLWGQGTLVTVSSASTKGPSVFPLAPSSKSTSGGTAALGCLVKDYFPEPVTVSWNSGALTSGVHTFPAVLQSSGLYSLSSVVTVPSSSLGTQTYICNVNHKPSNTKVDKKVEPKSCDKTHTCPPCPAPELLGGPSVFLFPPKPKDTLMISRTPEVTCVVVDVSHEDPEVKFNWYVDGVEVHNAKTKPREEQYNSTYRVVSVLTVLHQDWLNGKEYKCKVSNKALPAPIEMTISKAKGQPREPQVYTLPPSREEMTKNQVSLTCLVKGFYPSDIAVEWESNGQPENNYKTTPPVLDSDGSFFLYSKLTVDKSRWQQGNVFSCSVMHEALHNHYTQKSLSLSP
light: B4 light
notes: copies: 2 + 2
B7: M103205H795-SG1 G236A/M103202L889-SK1 (antibody, human IgG1, kappa)
heavy: not shown
light: B4 light
notes: copies: 2 + 2
B8: M103205H795-SG1 L235W/M103202L889-SK1 (antibody, human IgG1, kappa)
heavy: not shown
light: B4 light
notes: copies: 2 + 2
B9: M103205H795-SG1 Q295L/M103202L889-SK1 (antibody, human IgG1, kappa)
heavy: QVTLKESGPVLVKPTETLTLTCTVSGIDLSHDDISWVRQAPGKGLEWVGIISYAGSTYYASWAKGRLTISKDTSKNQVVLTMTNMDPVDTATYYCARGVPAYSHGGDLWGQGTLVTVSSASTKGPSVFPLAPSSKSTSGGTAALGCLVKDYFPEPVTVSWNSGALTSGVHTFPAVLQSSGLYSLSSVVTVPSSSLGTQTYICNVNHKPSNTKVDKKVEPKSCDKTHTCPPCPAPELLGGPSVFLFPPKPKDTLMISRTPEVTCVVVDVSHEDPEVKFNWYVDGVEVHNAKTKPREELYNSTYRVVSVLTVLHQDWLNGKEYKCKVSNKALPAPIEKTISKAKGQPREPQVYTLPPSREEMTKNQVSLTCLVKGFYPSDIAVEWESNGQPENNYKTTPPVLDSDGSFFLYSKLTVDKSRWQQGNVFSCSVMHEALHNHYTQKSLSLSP
light: B4 light
notes: copies: 2 + 2
B10: M103205H795-SG1 K326T/M103202L889-SK1 (antibody, human IgG1, kappa)
heavy: not shown
light: B4 light
notes: copies: 2 + 2
B11: M103205H795-SG1 E233D/M103202L889-SK1 (antibody, human IgG1, kappa)
heavy: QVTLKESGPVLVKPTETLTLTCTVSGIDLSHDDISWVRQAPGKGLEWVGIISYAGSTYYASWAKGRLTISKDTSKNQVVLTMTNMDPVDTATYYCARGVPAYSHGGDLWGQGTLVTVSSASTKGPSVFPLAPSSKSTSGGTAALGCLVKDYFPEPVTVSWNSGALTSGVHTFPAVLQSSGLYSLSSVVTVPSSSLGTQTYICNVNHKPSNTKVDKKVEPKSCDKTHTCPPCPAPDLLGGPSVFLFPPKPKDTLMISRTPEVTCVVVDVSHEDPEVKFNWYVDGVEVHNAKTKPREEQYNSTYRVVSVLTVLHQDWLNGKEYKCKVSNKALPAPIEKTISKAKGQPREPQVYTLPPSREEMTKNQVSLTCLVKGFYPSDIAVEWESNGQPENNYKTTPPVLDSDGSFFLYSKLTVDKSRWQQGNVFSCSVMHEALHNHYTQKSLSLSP
light: B4 light
notes: copies: 2 + 2
B12: M103205H795-SG1 P396M/M103202L889-SK1 (antibody, human IgG1, kappa)
heavy: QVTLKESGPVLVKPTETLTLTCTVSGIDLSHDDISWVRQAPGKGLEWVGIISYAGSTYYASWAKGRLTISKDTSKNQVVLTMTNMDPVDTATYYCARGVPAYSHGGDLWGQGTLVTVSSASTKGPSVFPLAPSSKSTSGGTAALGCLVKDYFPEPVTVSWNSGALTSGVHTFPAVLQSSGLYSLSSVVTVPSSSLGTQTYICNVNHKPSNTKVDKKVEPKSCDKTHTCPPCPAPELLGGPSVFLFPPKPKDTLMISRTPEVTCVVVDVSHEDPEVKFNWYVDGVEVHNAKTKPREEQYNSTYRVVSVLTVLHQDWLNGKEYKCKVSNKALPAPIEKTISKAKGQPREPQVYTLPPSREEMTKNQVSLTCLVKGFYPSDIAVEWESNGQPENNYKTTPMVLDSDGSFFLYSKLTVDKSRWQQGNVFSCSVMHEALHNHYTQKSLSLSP
light: B4 light
notes: copies: 2 + 2
B13: M103205H795-SG1 H268E/M103202L889-SK1 (antibody, human IgG1, kappa)
heavy: not shown
light: B4 light
notes: copies: 2 + 2
B14: M103205H795-SG1 P271G/M103202L889-SK1 (antibody, human IgG1, kappa)
heavy: not shown
light: B4 light
notes: copies: 2 + 2
B15: M103205H795-SG1 P331E/M103202L889-SK1 (antibody, human IgG1, kappa)
heavy: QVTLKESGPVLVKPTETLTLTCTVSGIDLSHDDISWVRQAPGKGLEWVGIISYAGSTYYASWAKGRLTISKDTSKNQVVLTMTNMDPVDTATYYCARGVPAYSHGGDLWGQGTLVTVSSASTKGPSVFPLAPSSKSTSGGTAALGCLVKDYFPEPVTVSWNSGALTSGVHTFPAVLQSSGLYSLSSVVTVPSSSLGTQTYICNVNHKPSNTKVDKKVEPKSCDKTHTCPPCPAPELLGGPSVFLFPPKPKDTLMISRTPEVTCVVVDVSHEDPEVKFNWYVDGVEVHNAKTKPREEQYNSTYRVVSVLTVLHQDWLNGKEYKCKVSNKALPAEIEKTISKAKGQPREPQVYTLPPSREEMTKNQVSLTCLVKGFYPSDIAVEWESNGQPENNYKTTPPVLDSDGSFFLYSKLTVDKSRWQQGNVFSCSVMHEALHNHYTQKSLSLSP
light: B4 light
notes: copies: 2 + 2
B16: M103205H795-SG1 S239V/M103202L889-SK1 (antibody, human IgG1, kappa)
heavy: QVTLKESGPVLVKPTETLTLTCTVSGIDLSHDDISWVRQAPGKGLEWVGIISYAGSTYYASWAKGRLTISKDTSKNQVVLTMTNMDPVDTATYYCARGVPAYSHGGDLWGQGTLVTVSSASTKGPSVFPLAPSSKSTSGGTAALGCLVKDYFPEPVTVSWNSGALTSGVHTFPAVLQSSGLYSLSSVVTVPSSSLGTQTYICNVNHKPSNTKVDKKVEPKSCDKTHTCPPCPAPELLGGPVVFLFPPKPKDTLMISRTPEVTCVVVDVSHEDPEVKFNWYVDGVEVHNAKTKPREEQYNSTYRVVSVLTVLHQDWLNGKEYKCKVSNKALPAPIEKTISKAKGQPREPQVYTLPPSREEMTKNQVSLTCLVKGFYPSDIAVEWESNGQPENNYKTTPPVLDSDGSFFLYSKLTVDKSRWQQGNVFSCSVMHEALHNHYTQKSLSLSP
light: B4 light
notes: copies: 2 + 2
B17: M103205H795-SG1 L234W/M103202L889-SK1 (antibody, human IgG1, kappa)
heavy: not shown
light: B4 light
notes: copies: 2 + 2
B18: M103205H795-SG1 K334V/M103202L889-SK1 (antibody, human IgG1, kappa)
heavy: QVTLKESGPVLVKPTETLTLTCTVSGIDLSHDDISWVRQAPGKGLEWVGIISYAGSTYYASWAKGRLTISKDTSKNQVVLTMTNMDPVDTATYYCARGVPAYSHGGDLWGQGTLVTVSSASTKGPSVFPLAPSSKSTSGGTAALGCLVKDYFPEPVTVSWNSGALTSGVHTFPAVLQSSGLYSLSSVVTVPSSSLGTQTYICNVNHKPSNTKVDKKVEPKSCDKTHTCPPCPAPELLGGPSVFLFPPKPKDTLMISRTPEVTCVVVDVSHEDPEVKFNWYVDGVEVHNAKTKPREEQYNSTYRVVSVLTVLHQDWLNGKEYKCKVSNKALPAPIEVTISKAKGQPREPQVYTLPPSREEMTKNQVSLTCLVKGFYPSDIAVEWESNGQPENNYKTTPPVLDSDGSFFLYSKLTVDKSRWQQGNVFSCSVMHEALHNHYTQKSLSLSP
light: B4 light
notes: copies: 2 + 2
B19: M103205H795-SG1 I332D/M103202L889-SK1 (antibody, human IgG1, kappa)
heavy: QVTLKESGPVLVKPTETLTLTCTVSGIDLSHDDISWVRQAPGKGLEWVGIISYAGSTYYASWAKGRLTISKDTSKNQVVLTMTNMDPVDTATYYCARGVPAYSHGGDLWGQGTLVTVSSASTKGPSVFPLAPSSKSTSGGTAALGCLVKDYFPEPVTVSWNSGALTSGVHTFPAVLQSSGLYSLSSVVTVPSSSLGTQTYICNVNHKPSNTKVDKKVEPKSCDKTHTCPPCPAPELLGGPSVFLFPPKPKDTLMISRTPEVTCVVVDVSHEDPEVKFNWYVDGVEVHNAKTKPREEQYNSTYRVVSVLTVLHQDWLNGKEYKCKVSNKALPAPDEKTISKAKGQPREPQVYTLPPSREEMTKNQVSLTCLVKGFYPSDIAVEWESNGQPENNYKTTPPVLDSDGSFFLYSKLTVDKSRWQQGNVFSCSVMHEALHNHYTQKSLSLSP
light: B4 light
notes: copies: 2 + 2
B20: MS103205H795-MY351/M103202L889-SK1 (antibody)
heavy: QVTLKESGPVLVKPTETLTLTCTVSGIDLSHDDISWVRQAPGKGLEWVGIISYAGSTYYASWAKGRLTISKDTSKNQVVLTMTNMDPVDTATYYCARGVPAYSHGGDLWGQGTLVTVSSASTKGPSVFPLAPSSKSTSGGTAALGCLVKDYFPEPVTVSWNSGALTSGVHTFPAVLQSSGLYSLSSVVTVPSSSLGTQTYICNVNHKPSNTKVDKKVEPKSCDKTHTCPPCPAPELLNGPSVFLFPPKPKDTLMISRTPEVTCVVVDVSDEDPEVKFNWYVDGVEVHNAKTKPREEQYNSTYRVVSVLTVLHRDWLNGKEYKCKVSNKALPKPIEKTISKAKGQPREPQVYTLPPSREEMTKNQVSLTCLVKGFYPSDIAVEWESNGQPENNYKTTPPVLDSDGSFFLYSKLTVKKSRWQQGNVFSCSVMHEALHNHYTQKSLSLSP
light: B4 light
notes: also called MS1032LO06-MY351; copies: 2 + 2
B21: M103205H795-SG1 K334I/M103202L889-SK1 (antibody, human IgG1, kappa)
heavy: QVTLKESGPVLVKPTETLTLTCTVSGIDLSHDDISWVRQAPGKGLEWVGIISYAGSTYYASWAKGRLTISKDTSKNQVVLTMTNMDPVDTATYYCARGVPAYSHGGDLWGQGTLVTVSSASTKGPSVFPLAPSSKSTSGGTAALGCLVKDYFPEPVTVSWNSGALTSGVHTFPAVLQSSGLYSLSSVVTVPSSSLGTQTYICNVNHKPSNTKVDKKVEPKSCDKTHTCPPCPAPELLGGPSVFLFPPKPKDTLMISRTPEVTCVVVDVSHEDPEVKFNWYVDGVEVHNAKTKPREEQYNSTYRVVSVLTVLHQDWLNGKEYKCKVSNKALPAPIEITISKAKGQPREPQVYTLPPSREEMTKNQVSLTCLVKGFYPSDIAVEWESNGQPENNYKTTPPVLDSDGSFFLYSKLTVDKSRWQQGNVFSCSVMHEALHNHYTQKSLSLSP
light: B4 light
notes: copies: 2 + 2
B22: MS103205H795-PK2/M103202L889-SK1 (antibody)
heavy: B20 heavy with D270E, R313Q, P398M, S402R
light: B4 light
notes: also called MS1032LO06-PK2; copies: 2 + 2
B23: M103205H795-SG1 S267A/M103202L889-SK1 (antibody, human IgG1, kappa)
heavy: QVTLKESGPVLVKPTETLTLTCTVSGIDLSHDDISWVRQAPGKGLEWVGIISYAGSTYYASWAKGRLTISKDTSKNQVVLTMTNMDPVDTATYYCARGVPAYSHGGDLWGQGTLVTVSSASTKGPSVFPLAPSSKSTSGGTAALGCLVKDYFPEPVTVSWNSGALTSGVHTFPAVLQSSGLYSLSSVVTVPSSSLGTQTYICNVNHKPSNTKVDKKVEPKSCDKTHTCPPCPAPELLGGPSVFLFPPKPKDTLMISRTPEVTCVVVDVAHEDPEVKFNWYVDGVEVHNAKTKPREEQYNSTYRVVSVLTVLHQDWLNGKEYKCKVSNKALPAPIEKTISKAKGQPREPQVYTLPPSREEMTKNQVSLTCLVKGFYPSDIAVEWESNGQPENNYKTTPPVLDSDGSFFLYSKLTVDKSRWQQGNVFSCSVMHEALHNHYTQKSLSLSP
light: B4 light
notes: copies: 2 + 2

Columns and labels:
human latent myostatin [1] = biological target: T1, human latent myostatin; assay: SPR affinity condition pH7.4 37C
human latent myostatin [2] = biological target: T1, human latent myostatin; assay: SPR avidity condition pH7.4 37C; pH 7.4
human latent myostatin [3] = biological target: T1, human latent myostatin; assay: SPR avidity condition pH5.8 37C; pH 5.8
[4] = biological target: T2, cyno Fc gamma RIIb extracellular …; assay: SPR 25C
[5] = biological target: T3, human Fc gamma RIIb extracellular …; assay: SPR 25C

Binder | binding result [4] | binding result [5] | also measured
B1 | – | – | Kd (human latent myostatin [1]): 0.812 nM; koff (human latent myostatin [1]): 0.00125 s⁻¹; kon (human latent myostatin [1]): 1.54e+06 M⁻¹ s⁻¹; Kd (human latent myostatin [2]): 0.163 nM; koff (human latent myostatin [2]): 0.000217 s⁻¹; kon (human latent myostatin [2]): 1.33e+06 M⁻¹ s⁻¹; Kd (human latent myostatin [3]): 9.13 nM; koff (human latent myostatin [3]): 0.00713 s⁻¹; kon (human latent myostatin [3]): 781000 M⁻¹ s⁻¹
B2 | – | – | Kd (human latent myostatin [1]): 1.64 nM; koff (human latent myostatin [1]): 0.00179 s⁻¹; kon (human latent myostatin [1]): 1.08e+06 M⁻¹ s⁻¹; Kd (human latent myostatin [2]): 0.298 nM; koff (human latent myostatin [2]): 0.000249 s⁻¹; kon (human latent myostatin [2]): 836000 M⁻¹ s⁻¹; Kd (human latent myostatin [3]): 24.3 nM; koff (human latent myostatin [3]): 0.0414 s⁻¹; kon (human latent myostatin [3]): 1.7e+06 M⁻¹ s⁻¹
B3 | – | – | Kd (human latent myostatin [1]): 1.08 nM; koff (human latent myostatin [1]): 0.00117 s⁻¹; kon (human latent myostatin [1]): 1.08e+06 M⁻¹ s⁻¹; Kd (human latent myostatin [2]): 0.196 nM; koff (human latent myostatin [2]): 0.000192 s⁻¹; kon (human latent myostatin [2]): 981000 M⁻¹ s⁻¹; Kd (human latent myostatin [3]): 9.66 nM; koff (human latent myostatin [3]): 0.00524 s⁻¹; kon (human latent myostatin [3]): 543000 M⁻¹ s⁻¹
B4 | binds | binds | –
B5 | binds | binds | –
B6 | binds | binds | –
B7 | binds | binds | –
B8 | binds | binds | –
B9 | binds | binds | –
B10 | binds | binds | –
B11 | binds | binds | –
B12 | binds | binds | –
B13 | binds | binds | –
B14 | binds | binds | –
B15 | binds | binds | –
B16 | binds | binds | –
B17 | binds | binds | –
B18 | binds | binds | –
B19 | binds | binds | –
B20 | – | – | KD fold vs SG1 [5]: 5 fold
B21 | binds | binds | –
B22 | – | – | KD fold vs SG1 [5]: 8 fold
B23 | binds | binds | –

Source: patent publication EP4755449A2 (CHUGAI SEIYAKU KABUSHIKI KAISHA, dated 2026)
